Experimental data taken from PMC3963918, “CCHCR1 Interacts Specifically with the E2 Protein of Human Papillomavirus Type 16 on a Surface Overlapping BRD4 Binding” (PLoS ONE, 2014).

T1: HPV16 E2 protein fused to Gaussia luciferase fragment GL2 (human papillomavirus type 16, UniProt P03120 1-365)
T1 construct: source: 293 T cells, transfected (pSPICA-N2), in lysate
T1 sequence: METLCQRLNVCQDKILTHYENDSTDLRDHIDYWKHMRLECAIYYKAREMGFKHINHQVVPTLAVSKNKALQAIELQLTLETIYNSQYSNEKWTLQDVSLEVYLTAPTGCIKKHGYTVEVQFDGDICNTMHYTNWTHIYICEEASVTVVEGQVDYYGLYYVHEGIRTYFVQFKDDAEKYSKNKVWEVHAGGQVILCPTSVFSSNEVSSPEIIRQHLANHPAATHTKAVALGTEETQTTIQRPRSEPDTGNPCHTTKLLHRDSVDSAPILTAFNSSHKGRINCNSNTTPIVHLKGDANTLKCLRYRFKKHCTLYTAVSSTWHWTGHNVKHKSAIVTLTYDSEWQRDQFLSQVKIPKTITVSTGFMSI

B1: CCHCR1 (Coiled-Coil alpha HeliCal Rod protein 1), polypeptide from amino acid 137 to the stop codon, fused to Gaussia luciferase fragment GL1 (domain or fragment)
chain: KAGRAEAEGLRAALAGAEVVRKNLEEGSQRELEEVQRLHQEQLSSLTQAHEEALSSLTSKAEGLEKSLSSLETRRAGEAKELAEAQREAELLRKQLSKTQEDLEAQVTLVENLRKYVGEQVPSEVHSQTWELERQKLLETMQHLQEDRDSLHATAELLQVRVQSLTHILALQEEELTRKVQPSDSLEPEFTRKCQSLLNRWREKVFALMVQLKAQELEHSDSVKQLKGQVASLQEKVTSQSQEQAILQRSLQDKAAEVEVERMGAKGLQLELSRAQEARRRWQQQTASAEEQLRLVVNAVSSSQIWLETTMAKVEGAAAQLPSLNNRLSYAVRKVHTIRGLIARKLALAQLRQESCPLPPPVTDVSLELQQLREERNRLDAELQLSARLIQQEVGRAREQGEAERQQLSKVAQQLEQELQQTQESLASLGLQLEVARQGQQESTEEAASLRQELTQQQELYGQALQEKVAEVETRLREQLSDTERRLNEARREHAKAVVSLRQIQRRAAQEKERSQELRRLQEEARKEEGQRLARRLQELERDKNLMLATLQQEGLLSRYKQQRLLTVLPSLLDKKKSVVSSPRPPECSASAPVAAAVPTRESIKGSLSVLLDDLQDLSEAISKEEAVCQGDNLDRCSSSNPQMSS
notes: also called Pg8; SBP
B2: 3XFLAG-tagged CCHCR1, shorter E2-interacting isoform (amino acid 137 to the stop codon) (domain or fragment)
chain: B1 chain
notes: also called Flag-CCHCR1; 3XFLAG CCHCR1; source: 293 T cells, transfected (pCiNeo-3XF), in lysate

Tests used:
[1] = target: T1, HPV16 E2 protein fused to Gaussia …; assay: split reporter (BiFC, NanoBiT); settings: partners not purified
[2] = target: T1, HPV16 E2 protein fused to Gaussia …; assay: split reporter (BiFC, NanoBiT); GPCA competition: GL1 and GL2 partners plus a 3XFlag-tagged challenging protein (0.5 ug of each plasmid) in 293 T cells, 12-well plates, harvested 40 h after transfection; NLR relative to empty plasmid; settings: partners not purified

Row | Binder | NLR (Normalized Luminescence Ratio) [1] | fold decrease of the NLR of HPV16 E2 with BRD4 in the presence of CCHCR1 [2] [fold]
1 | B1 | ~250 | –
2 | B2 | – | 5
